This is an account of results in the Human Domainome abundance scans (Beltran et al. 2025).

± gives the uncertainty stated by the source.

The labels stand for the following.
B1: Dystrobrevin alpha, residues 235 to 294; numbered along this chain, Q9Y4J8 (parent)
chain: ENVFHPVECSYCHSESMMGFRYRCQQCHNYQLCQDCFWRGHAGGSHSNQHQMKEYTSWKS

In the data set the parent is B1. In words: abundance fitness (aPCA) (normalised: wild type 0, dead -1); higher = more abundant; growth selection in yeast, the domain comes from the species named. The conditions noted are these: Homo sapiens.
With Y55D, the abundance fitness stood at 0.243 ± 0.093. With Y55P, the abundance fitness is -0.078 ± 0.12. On to Y55I, for which the abundance fitness is -0.066 ± 0.1.

Regarding Y55E, the abundance fitness amounted to 0.117 ± 0.1. Then Y55Q, with -0.071 ± 0.086.

As for E1D, the abundance fitness turned out to be 0.028 ± 0.091. Consider E1M, for which the abundance fitness was -0.377 ± 0.3. Turning to E1G, the abundance fitness is -0.336 ± 0.066. Then K59A, with 0.082 ± 0.079; and K59L, with -0.013 ± 0.085; and K59T, with 0.049 ± 0.083. As for K59F, the figure is -0.142 ± 0.1; as for K59P, -0.034 ± 0.32. Take K59V: the abundance fitness was -0.105 ± 0.11. Consider K59H, for which the abundance fitness is 0.074 ± 0.1. Then K59Y, with -0.099 ± 0.19; and K59D, with 0.356 ± 0.21. As to K59I, the abundance fitness is -0.392 ± 0.38. Regarding Y22R, the abundance fitness is -0.241 ± 0.083. Then Y22P, with -0.904 ± 0.32; and Y22E, with -0.675 ± 0.17; and K53Y, with -0.262 ± 0.11.

K53I: the abundance fitness was -0.111 ± 0.1. In the case of K53V, the abundance fitness amounted to 0.137 ± 0.065. As for K53Q, the figure is 0.026 ± 0.089. As to K53G, the abundance fitness was -0.248 ± 0.052. Consider K53H, for which the abundance fitness is -0.167 ± 0.21. As for K53F, the abundance fitness is -0.313 ± 0.097. Consider K53D, for which the abundance fitness is -0.16 ± 0.12. In the case of R39V, the abundance fitness is -0.202 ± 0.047. Take R39K: the abundance fitness was 0.228 ± 0.05. Regarding R39G, the abundance fitness came out at 0.011 ± 0.044. Take R39Y: the abundance fitness is -0.099 ± 0.066. Then R39D, with -0.083 ± 0.071. Then E15M, with 0.074 ± 0.08; and E15T, with 0.034 ± 0.042; and E15P, with 0.1 ± 0.09.

In the case of E15F, the abundance fitness is -0.133 ± 0.1. Then E15C, with -0.171 ± 0.09; and S60N, with -0.216 ± 0.34; and S60I, with -0.519 ± 0.14.

For the variant S60Y, the abundance fitness was -0.207 ± 0.14. For V3P, the abundance fitness was 0.083 ± 0.052.

Consider V3Q, for which the abundance fitness is 0.106 ± 0.075. On to V3R, for which the abundance fitness worked out at 0.011 ± 0.046. As for V3D, the figure is 0.011 ± 0.11; as for V3W, -0.34 ± 0.07; as for V3C, 0.118 ± 0.075.

Take V3L: the abundance fitness was determined as 0.096 ± 0.058. Then C33H, with -0.659 ± 0.28; and C33R, with -0.675 ± 0.098; and C33W, with -0.811 ± 0.14. For C33Q, the abundance fitness was -0.609 ± 0.1.

As to C33L, the abundance fitness was -0.874 ± 0.099. Then C33I, with -0.884 ± 0.18; and C33E, with -0.541 ± 0.093.

In the case of C33A, the abundance fitness was -0.495 ± 0.089. Then T56F, with -0.642 ± 0.18. For the variant T56D, the abundance fitness amounted to 0.188 ± 0.076.

As to T56H, the abundance fitness is -0.025 ± 0.1. Regarding T56R, the abundance fitness was -0.061 ± 0.044. Then T56Q, with 0.044 ± 0.09; and T56M, with -0.151 ± 0.12; and H13M, with -0.109 ± 0.054. In the case of H13C, the abundance fitness is -0.176 ± 0.12. With H13T, the abundance fitness is -0.076 ± 0.055. With H13I, the abundance fitness is -0.406 ± 0.19. As for H13Y, the abundance fitness is -0.165 ± 0.095. As to H13Q, the abundance fitness was -0.172 ± 0.084. As for H13A, the figure is -0.107 ± 0.058; as for N29K, -0.156 ± 0.08. Consider N29M, for which the abundance fitness is -0.044 ± 0.085. N29R: the abundance fitness is -0.171 ± 0.048.

In the case of N29A, the abundance fitness is -0.028 ± 0.07. As for N29G, the figure is -0.058 ± 0.047; as for N29T, -0.213 ± 0.065; as for Q26P, -0.545 ± 0.11. As to Q26L, the abundance fitness was -0.287 ± 0.087. Turning to Q26K, the abundance fitness is -0.288 ± 0.13. Turning to Q26A, the abundance fitness amounted to 0.006 ± 0.079. Regarding F4Q, the abundance fitness was -0.152 ± 0.084.

Turning to F4V, the abundance fitness is -0.01 ± 0.052.

Take F4D: the abundance fitness worked out at 0.108 ± 0.11. Regarding F4M, the abundance fitness is -0.043 ± 0.079. On to F4P, for which the abundance fitness is -0.107 ± 0.068. As for F4G, the figure is -0.014 ± 0.055; as for F4H, -0.059 ± 0.067. Turning to F4L, the abundance fitness was -0.039 ± 0.059. On to S57H, for which the abundance fitness is 0.124 ± 0.08. Then S57W, with -0.192 ± 0.089. For S57C, the abundance fitness was determined as 0.074 ± 0.065.

Take S57Y: the abundance fitness is -0.395 ± 0.13.

In the case of S57Q, the abundance fitness was -0.059 ± 0.089. As for S57M, the abundance fitness was found to be 0.036 ± 0.081. S57P: the abundance fitness came out at 0.171 ± 0.077.

On to S57A, for which the abundance fitness worked out at 0.085 ± 0.064.

Take S57F: the abundance fitness was -0.391 ± 0.085. As for H28N, the abundance fitness is 0.152 ± 0.076.

As for H28T, the abundance fitness was determined as 0.1 ± 0.053. As for H28G, the figure is -0.1 ± 0.042; as for H28E, 0.063 ± 0.06. Consider H28K, for which the abundance fitness came to 0.122 ± 0.063.

For the variant H28S, the abundance fitness stood at 0.027 ± 0.051. Take H28A: the abundance fitness worked out at 0.145 ± 0.043.

Take H28I: the abundance fitness came to 0.033 ± 0.062. As to H28R, the abundance fitness was -0.002 ± 0.052. Then Q25H, with -0.193 ± 0.16; and Q25N, with -0.128 ± 0.095; and Q25L, with -0.026 ± 0.053. Regarding Q25V, the abundance fitness stood at 0.019 ± 0.048. Then Q25D, with -0.117 ± 0.095.

Q25C: the abundance fitness was -0.102 ± 0.1. S10I: the abundance fitness was -0.588 ± 0.19. As for S10V, the figure is -0.746 ± 0.088; as for S10T, -0.162 ± 0.065; as for S10Q, -0.453 ± 0.11.

Take P6L: the abundance fitness was -0.176 ± 0.04.

With P6Y, the abundance fitness is -0.218 ± 0.069. P6E: the abundance fitness is -0.045 ± 0.064. As for Y30R, the figure is -0.301 ± 0.052; as for Y30L, -0.36 ± 0.059; as for Y30A, -0.398 ± 0.093. For the variant Y30M, the abundance fitness is -0.288 ± 0.09. Turning to Y30D, the abundance fitness is -0.508 ± 0.1. Regarding G40M, the abundance fitness is -0.404 ± 0.16. Consider G40D, for which the abundance fitness is -0.166 ± 0.14. As to G40W, the abundance fitness was -0.352 ± 0.099.

On to G40V, for which the abundance fitness is -0.266 ± 0.038. For the variant G40A, the abundance fitness is -0.391 ± 0.1. As for G40K, the figure is -0.045 ± 0.093; as for G40T, -0.366 ± 0.1. Turning to G40N, the abundance fitness was -0.138 ± 0.15. Take S45L: the abundance fitness was -0.163 ± 0.083. In the case of S45W, the abundance fitness is -0.287 ± 0.087.

Take S45K: the abundance fitness is 0.031 ± 0.076. S45Y: the abundance fitness is -0.605 ± 0.2.

S45N: the abundance fitness was -0.13 ± 0.13. For R23P, the abundance fitness was -0.509 ± 0.091.

Take R23D: the abundance fitness is -0.022 ± 0.091. On to R23K, for which the abundance fitness came to 0.147 ± 0.069. Then H50M, with -0.503 ± 0.058; and H50K, with -0.438 ± 0.073.

Turning to H50L, the abundance fitness is -0.622 ± 0.052.

H50E: the abundance fitness is -0.516 ± 0.08. Take H50W: the abundance fitness was -0.624 ± 0.07. For the variant H50I, the abundance fitness was -0.524 ± 0.064.

In the case of C27Q, the abundance fitness is -0.943 ± 0.18. As for C27T, the abundance fitness was -0.877 ± 0.12. With C27K, the abundance fitness was -0.745 ± 0.09. On to C27E, for which the abundance fitness was -0.717 ± 0.089. As for C27M, the figure is -0.814 ± 0.12. For the variant C27H, the abundance fitness was -0.814 ± 0.39. As for C27F, the figure is -0.434 ± 0.17; as for C27A, -0.727 ± 0.068.

For the variant Q51C, the abundance fitness is -0.148 ± 0.082. Q51I: the abundance fitness came to 0.009 ± 0.078. For the variant Q51F, the abundance fitness is -0.536 ± 0.18. Regarding Q51S, the abundance fitness was 0.062 ± 0.06. Turning to Q51D, the abundance fitness was determined as 0.101 ± 0.06. S47Q: the abundance fitness was -0.031 ± 0.11. Then S47R, with -0.118 ± 0.053; and S47G, with -0.22 ± 0.046. As to S47V, the abundance fitness is -0.199 ± 0.051.

As for S16R, the abundance fitness was determined as 0.06 ± 0.046.

Consider S16T, for which the abundance fitness came to 0.014 ± 0.062. Turning to S16Y, the abundance fitness is -0.304 ± 0.069. Then S16C, with -0.092 ± 0.063.
